For one sequence, Kd results are on record in article PMC3167817.

In data set [1] the target is EGFR on A549 cells (endogenous) (human) (UniProt P00533). The experiment in a line: cell binding, radiolabeled aptamer. The note with it: A549 cells; binding decreased by EGFR shRNA and 1 uM EGF; 2'-fluoro pyrimidines; Filter binding: 1 nM radiolabeled RNA, PBS + 0.01% BSA, 15 min, 37 C (5 mM DTT for monomer); CL4sc background subtracted; pull-down: 200 nM aptamer on A549 ….

The target in data set [2] is EGFR on NIH/EGFR cells (human) (UniProt P00533). The experiment in a line: cell binding, radiolabeled aptamer. The note with it: apparent Kd; parental NIH3T3 not bound; 2'-fluoro pyrimidines; Filter binding: 1 nM radiolabeled RNA, PBS + 0.01% BSA, 15 min, 37 C (5 mM DTT for monomer); CL4sc background subtracted; pull-down: 200 nM aptamer on A549 ….

On to “GCCUUAGUAACGUGCUUUGAUGUCGAUUCGACAGGAGGC [CL4]”, for which the Kd amounted to 38 nM in data set [1] and 60 nM in data set [2].
